Where two headings read alike, the source gives them in different places.

Series [1] is described as follows: in vivo. To be noted: dog, iv, 667 pmol/kg.
Protocol: (§3) Blood samples were obtained from aorta and renal vein and urine is obtained before and 2.5, 5, 10, 15, 30, 60, 120, and 180 min after injection. […] These doses were similar to doses of carperitide/nesiritide in clinical use.
(§4) Canine ANP1-28 and NT-proANP concentrations are determined by specific immunoassays as described elsewhere (Ichiki et al., Clin Chem, 2011, 57:40-47; Ichiki et al., 2012, supra; Chen et al., J Am Coll Cardiol, 2000, 35:240A; and Chen et al., Am J Physiol Regul Integr Comp Physiol, 2005, 288:R1093-1097).
(§5) The in vivo effects of canine proANP, ANP1-28, and BNP1-32 were examined in normal canines (FIG. 6).
Series [2] is described as follows: Hemodynamic and renal actions after bolus intravenous injection in normal canines. The format is in vivo, canine.
Protocol: Blood samples were obtained from aorta and renal vein and urine is obtained before and 2.5, 5, 10, 15, 30, 60, 120, and 180 min after injection.
as §5
For series [3], the system named is cGMP. Nature of the series: Plasma and urinary cGMP after bolus intravenous injection in normal canines. The conditions noted are these: for PcGMP AUC / PcGMP Cmax: plasma cGMP; for PcGMP AUC / PcGMP Cmax / UcGMP AUC / UcGMP Cmax: intravenous bolus 667 pmol/kg; for UcGMP AUC / UcGMP Cmax: urinary cGMP excretion. Format: in vivo, canine. The method, then: (§1) The samples were ether extracted four times in 4 volumes of ether, dried, and reconstituted in 300 ul cGMP assay buffer, and the cGMP levels were measured using a competitive RIA cGMP kit (Perkin-Elmer, Boston, Mass.).

Series [4] is described as follows: Pharmacokinetic analysis of NP immunoreactivity after bolus intravenous injection in normal canines.
Protocol: as §3, §4, §5
A short description of series [5]: Processing and degradation of His-tagged proANP in human serum ex vivo.
Protocol: Exogenous proANP was incubated in human serum at 37° C. Processed and unprocessed proANP peptides were isolated by immunoprecipitation using His-tag beads, followed by detection via Western blotting with 6×His antibody. […] FIG. 4C is a graph plotting densitometric analysis of processed ANP1-28 from proANP that was incubated in serum from normal subjects and HF patients for the indicated times. Values are mean±SEM. *p<0.05 vs. 0 min.
For series [6], the system named is human cardiac fibroblasts (CFs). The series can be described thus: cGMP production in human cardiac fibroblasts. Format: cell-based. To be noted: 10^−7 M.
Text: (§2) FIGS. 5A-5D depict proANP effects in vitro. FIG. 5A is a pair of graphs plotting cGMP production in GC-A or GC-B overexpressing HEK293 cells treated with proANP, proBNP, or mature ANP or BNP, as indicated. *p<0.05 vs. non-treated cells. FIG. 5B is a pair of graphs plotting cGMP production in GC-A or GC-B overexpressing HEK293 cells treated with proANP (10^−8 M) in serum or PBS, as indicated. *p<0.05 vs. non-treated cells. †p<0.05 vs. PBS-treated proANP. FIG. 5C is a series of photographs showing immunocytochemistry for collagen type I (Col I), GC-A, and corin in cardiac fibroblasts (CFs). NHS served as a negative control. Magnification is 100×. FIG. 5D is a graph plotting the time course of cGMP production in CFs treated with ANP or proANP (10^−7M). […] Data are mean±SEM.
as §1
Further studies utilized human CFs in which GC-A and proANP convertase corin exist (FIG. 5C).

For series [7], the target named is T1, GC-A (Homo sapiens, UniProt P16066).
T1 construct: expressed in transfected cells; host or cells: HEK293
T1 sequence (P16066 33-1061): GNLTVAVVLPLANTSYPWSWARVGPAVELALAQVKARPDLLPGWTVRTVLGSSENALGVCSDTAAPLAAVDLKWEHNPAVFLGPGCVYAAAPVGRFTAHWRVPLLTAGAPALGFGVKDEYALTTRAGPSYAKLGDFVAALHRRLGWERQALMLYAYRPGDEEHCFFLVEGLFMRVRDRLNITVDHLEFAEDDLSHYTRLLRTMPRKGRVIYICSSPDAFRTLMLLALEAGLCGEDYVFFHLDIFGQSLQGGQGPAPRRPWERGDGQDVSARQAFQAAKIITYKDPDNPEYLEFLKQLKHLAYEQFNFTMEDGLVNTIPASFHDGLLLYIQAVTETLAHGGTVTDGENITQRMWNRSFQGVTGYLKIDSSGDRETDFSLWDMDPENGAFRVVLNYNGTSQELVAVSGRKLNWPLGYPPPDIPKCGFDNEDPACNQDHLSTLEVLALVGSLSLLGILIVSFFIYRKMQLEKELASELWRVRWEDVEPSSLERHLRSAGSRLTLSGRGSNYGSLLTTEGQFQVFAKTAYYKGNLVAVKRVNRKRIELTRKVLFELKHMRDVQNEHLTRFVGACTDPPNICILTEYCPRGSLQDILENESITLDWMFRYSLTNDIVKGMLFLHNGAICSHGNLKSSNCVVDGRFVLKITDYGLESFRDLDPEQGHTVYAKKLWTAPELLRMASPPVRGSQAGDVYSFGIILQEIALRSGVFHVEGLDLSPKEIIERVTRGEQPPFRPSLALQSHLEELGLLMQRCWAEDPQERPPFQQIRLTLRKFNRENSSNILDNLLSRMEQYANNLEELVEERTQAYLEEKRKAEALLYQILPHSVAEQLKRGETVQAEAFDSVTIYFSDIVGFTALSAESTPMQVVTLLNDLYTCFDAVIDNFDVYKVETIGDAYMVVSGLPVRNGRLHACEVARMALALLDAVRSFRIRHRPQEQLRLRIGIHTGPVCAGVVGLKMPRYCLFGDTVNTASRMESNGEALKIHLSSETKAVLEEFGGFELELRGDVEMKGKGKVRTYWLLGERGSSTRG
Nature of the series: cGMP production in HEK293 cells overexpressing GC-A. Format: cell-based.
Text: as §2, §1

Where [8] appears, read: 667 pmol/kg intravenous, comparison of the three NPs.
Where [9] appears, read: normal canines, 667 pmol/kg intravenous.

As usually defined, the AUC is the area under the concentration-time curve, a measure of exposure. Low values mean low exposure, high ones high exposure. What is called Tmax is the time at which the peak concentration occurs. As to `CC[C@H](C)[C@@H]1NC(=O)[C@H](CCCNC(=N)N)NC(=O)[C@H](CC(=O)O)NC(=O)[C@H](CCSC)NC(=O)[C@H](CCCNC(=N)N)NC(=O)CNC(=O)CNC(=O)[C@H](Cc2ccccc2)NC(=O)[C@@H](NC(=O)[C@H](CO)NC(=O)[C@H](CO)NC(=O)[C@H](CCCNC(=N)N)NC(=O)[C@H](CCCNC(=N)N)NC(=O)[C@H](CC(C)C)NC(=O)[C@@H](N)CO)CSSC[C@@H](C(=O)N[C@@H](CC(N)=O)C(=O)N[C@@H](CO)C(=O)N[C@@H](Cc2ccccc2)C(=O)N[C@@H](CCCNC(=N)N)C(=O)N[C@@H](Cc2ccc(O)cc2)C(=O)O)NC(=O)CNC(=O)[C@H](CC(C)C)NC(=O)CNC(=O)[C@H](CO)NC(=O)[C@H](CCC(N)=O)NC(=O)[C@H](C)NC(=O)CNC1=O` [ANP, atrial natriuretic peptide], in series [1], the AUC is 0.2 nM·h and the Tmax is 2 min.
By Cmax is commonly meant the maximum level reached in the sampled fluid or tissue. A word on the half-life: it is the time in which the quantity being followed falls by half. With `CC[C@H](C)[C@@H]1NC(=O)[C@H](CCCNC(=N)N)NC(=O)[C@H](CC(=O)O)NC(=O)[C@H](CCSC)NC(=O)[C@H](CCCCN)NC(=O)[C@H](CCCNC(=N)N)NC(=O)CNC(=O)[C@H](Cc2ccccc2)NC(=O)[C@@H](NC(=O)CNC(=O)[C@H](CO)NC(=O)CNC(=O)[C@H](CCC(N)=O)NC(=O)[C@@H](NC(=O)[C@H](CCSC)NC(=O)[C@H](CCCCN)NC(=O)[C@@H]2CCCN2C(=O)[C@@H](N)CO)C(C)C)CSSC[C@@H](C(=O)N[C@@H](CCCCN)C(=O)N[C@H](C(=O)N[C@@H](CC(C)C)C(=O)N[C@@H](CCCNC(=N)N)C(=O)N[C@@H](CCCNC(=N)N)C(=O)N[C@@H](Cc2c[nH]cn2)C(=O)O)C(C)C)NC(=O)CNC(=O)[C@H](CC(C)C)NC(=O)CNC(=O)[C@H](CO)NC(=O)[C@H](CO)NC(=O)[C@H](CO)NC(=O)[C@H](CO)NC1=O` [BNP, B-type natriuretic peptide, reference compound], the “effect on blood pressure (BP)” value in series [2] (setting [8]) was “greatest effect”. For the same molecule, in series [3], the “PcGMP AUC” value was 13406.9 pmol·min/mL, the “PcGMP Cmax” value is 255.4 pmol/mL, the “UcGMP AUC” value was determined as 207454 pmol·min/mL and the “UcGMP Cmax” value stood at 6936.2 pmol/mL. For the same molecule, in series [4] (dog, plasma, iv, 667 pmol/kg), the AUC was 0.0517 nM·h, the Cmax is 0.43 nM, the Tmax was 2 min and the half-life was 3.7 min. The “decline of plasma immunoreactivity after the peak” value in series [4] (setting [9]) is listed as “decreased rapidly”.

B1: proANP (protein, listed as Homo sapiens)
chain: NPMYNAVSNADLMDFKNLLDHLEEKMPLEDEVVPPQVLSEPNEEAGAALSPLPEVPPWTGEVSPAQRDGGALGRGPWDSSDRSALLKSKLRALLTAPRSLRRSSCFGGRMDRIGAQSGLGCNSFRY
modifications: His tag in serum
notes: 126 amino acid pro form of atrial natriuretic peptide
With B1, in series [2] (667 pmol/kg intravenous), the “effect on cardiac output” value is on record as “less than that of either ANP or BNP” and the “effect on renal blood flow” value was “less effect on renal blood flow”. Also, in series [2] (setting [8]), the “diuretic and natriuretic actions (urine volume, urinary sodium excretion)” value was “strongest and longest”; the “effect on blood pressure (BP)” value is recorded as “less of an effect on BP as compared to the other two NPs”. Besides, the “effect on heart rate” value in series [2] (first 90 minutes, then increased by about 120 minutes) was “less than that of ANP or BNP”. In series [3] (667 pmol/kg intravenous), the “AUC for plasma cGMP (PcGMP) relative to ANP or BNP” value is recorded as “less than that for ANP or BNP” and the “AUC for urinary cGMP excretion (UcGMP) relative to ANP or BNP” value is reported as “twice that of ANP or BNP”. In series [3], the “PcGMP AUC” value turned out to be 6110.5 pmol·min/mL, the “PcGMP Cmax” value worked out at 93.8 pmol/mL, the “UcGMP AUC” value came to 420368 pmol·min/mL and the “UcGMP Cmax” value turned out to be 7027.8 pmol/mL. Besides, the “NPi AUC” value in series [4] (NP immunoreactivity, normal canines, equimolar intravenous bolus 667 pmol/kg) worked out at 28.1 pmol·min/mL. Further, in series [4] (setting [9]), the “AUC for NP immunoreactivity relative to ANP” value is “twice that of ANP”, the “decline of plasma immunoreactivity after the peak” value is given as “decreased more slowly than ANP or BNP” and the “time of peak plasma immunoreactivity after injection” value was 2 min. In addition, the half-life in series [4] (normal canines, equimolar intravenous bolus 667 pmol/kg) is 20.7 min. In addition, the “half-life relative to ANP” value in series [4] (normal canines, pharmacokinetic analysis) is given as “about 4 times”. Also, in series [4] (read-out: NPi Cmax, NP immunoreactivity, normal canines, equimolar intravenous bolus 667 pmol/kg), the maximum concentration (Cmax) stood at 0.96 nM. Besides, the “processing of proANP in normal human serum” value in series [5] (His-tagged proANP, 37° C., 5 minute incubation, normal serum) was “processed into ANP1-28”. Moreover, the “proANP processing into ANP1-28 in HF serum compared to normals” value in series [5] (serum from HF patients) is recorded as “preserved”. Moreover, in series [6] (after 60 minutes), the “cGMP production relative to ANP” value is “about equal”. Besides, in series [6] (all time points), the “cGMP levels compared to 0 minutes” value is listed as “significant increases in cGMP levels”. In addition, in series [6] (first 30 minutes), the “cGMP production relative to ANP” value is on record as “about half as much as ANP”. For the same molecule, the cGMP production entry in series [7] (HEK293 cells overexpressing GC-A) is recorded as “lower than ANP but much higher than proBNP”. For the same molecule, the “cGMP production by proANP treated in serum for 5 minutes” value in series [7] (proANP 10^−8 M, treated in serum 5 minutes, versus untreated proANP) is given as “stimulated cGMP production significantly as compared to untreated proANP”. Moreover, in series [7] (proANP 10^−8 M, treated in serum 180 minutes), the “cGMP production by proANP treated in serum for 180 minutes” value is on record as “decreased”.

The values are drawn from patent US20140274901A1, “PROANP COMPOSITIONS AND METHODS FOR TREATING ACUTE HEART FAILURE” (Mayo Foundation for Medical Education and Research, priority 2013, published 2014).
